Measured values taken from patent US20240327804A1, “CONJUGATES AND METHODS OF USE THEREOF” (Regents of the University of Minnesota, priority 2023, published 2024).

Key:
[1] = biological target: T1, epithelial cell adhesion molecule (EpCAM) on HT29-R cells (human, UniProt P16422 24-314); test: flow cytometry, 0.5 µM fluorescein-labeled CSANs on HT29-R (EpCAM+) cells, 1 h at 4° C.
T1 construct: whole, on cells
T1 sequence (looked up): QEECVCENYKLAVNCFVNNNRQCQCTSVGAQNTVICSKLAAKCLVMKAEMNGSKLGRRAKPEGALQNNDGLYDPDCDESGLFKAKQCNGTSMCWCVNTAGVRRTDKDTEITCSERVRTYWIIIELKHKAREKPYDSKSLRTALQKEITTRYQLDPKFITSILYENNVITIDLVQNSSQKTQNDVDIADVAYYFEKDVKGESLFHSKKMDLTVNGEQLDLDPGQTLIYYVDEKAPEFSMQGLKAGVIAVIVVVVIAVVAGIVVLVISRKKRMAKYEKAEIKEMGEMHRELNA
Protocol: (§1) The binding specificity of the CSANs to the corresponding cellular receptors was studied by flow cytometry. A431-R cells were chosen as the EGFR⁺ cell line; SK-BR-3-R cells were chosen as the HER2⁺ cell line; HT-29-R cells were chosen as the EpCAM⁺ cell line; HT29-R cells were chosen as the CD133⁺ cell line. The cells were harvested and washed with DPBS buffer (Gibco, Cat: 14190144), and aliquots of […] were then resuspended in 100 μL of DPBS solutions containing 0.5 μM of fluorescein-labeled CSANs and incubated for 1 h at 4° C. The cells were then pelleted, washed, and resuspended in 0.5 mL of cold DPBS and analyzed using an LSR II flow cytometer (BD Biosciences) at the University Flow Cytometry Resource (UFCR). For the cell surface modification with farnesylated CSANs, the sender cells were collected from cell culture, pelleted at 350 g for 5 min, and washed with 1 mL DPBS. Aliquots of 10⁵ cells were then incubated in 100 μL of DPBS solutions containing the desired concentrations of fluorescein-labeled farnesylated CSANs for at least 1 h at room temperature with rotation and washed twice with 1 mL cold DPBS to remove unbound CSANs. The modified cells were then resuspended in 0.5 mL of cold DPBS and analyzed using an LSR II flow cytometer (BD Biosciences) at the University Flow Cytometry Resource (UFCR).

CD133+ HT29-R cells = test: Binding of CSANs to CD133+ HT29-R cells by flow cytometry; settings: fluorescein-labeled CSANs
Protocol: The Bangs beads (Bangs Laboratories, Cat: 815A) were collected and resuspended in PBS, and then stained with the fluorescently labeled antibody that detects the corresponding cell surface receptor (anti-EGFR-BV421, Biolegend, Cat: 352911; anti-HER2-BV421, Biolegend, Cat: 324420; anti-EpCAM-AF647, Biolegend, Cat: 118211) at 4° C. for >30 min, followed by wash steps. 100,000 of the cancer cells were collected and stained with the corresponding antibody at 4° C. for >30 min, followed by wash steps. The cells and beads were analyzed by flow cytometry. The calibration curve was generated based on the MFI of the beads and the corresponding antibody binding capacity of the beads. The receptor number was calculated based on the MFI of the cells stained with the antibody and the previously generated calibration curve. […]
The binding specificity of the CSANs to the corresponding cellular receptors was studied by flow cytometry. […] The cells were then pelleted, washed, and resuspended in 0.5 mL of cold DPBS and analyzed using an LSR II flow cytometer (BD Biosciences) at the University Flow Cytometry Resource (UFCR). […] The modified cells were then resuspended in 0.5 mL of cold DPBS and analyzed using an LSR II flow cytometer (BD Biosciences) at the University Flow Cytometry Resource (UFCR).

[2] = biological target: T2, epidermal growth factor receptor (EGFR) on A431-R / MDA-MB-231-R cells (human, UniProt P00533 25-1210); test: flow cytometry, fluorescein-labeled CSANs on A431-R cells, 1 h at 4° C.
T2 construct: whole, on cells
Protocol: as §1

[3] = biological target: T1, epithelial cell adhesion molecule …; test: flow cytometry, fluorescein-labeled CSANs on HT29-R cells, 1 h at 4° C.
Protocol: as §1

[4] = biological target: T3, human epidermal growth factor receptor 2 (HER2) on SK-BR-3-R cells (human, UniProt P04626 23-1255); test: flow cytometry, fluorescein-labeled CSANs on SK-BR-3-R cells, 1 h at 4° C.
T3 construct: whole, on cells
Protocol: as §1

[5] = system: receptor expressing target cells (A431-R, SK-BR-3-R, HT29-R); test: Binding specificity of CSANs to cellular receptors by flow cytometry; settings: unfarnesylated fluorescein-labeled CSANs, 0.5 μM, 1 h, 4° C.
Protocol: as §1, with “EGFR^+” for “EGFR⁺”, “HER2^+” for “HER2⁺”, “EpCAM^+” for “EpCAM⁺”, “CD133^+” for “CD133⁺”, “10^5” for “10⁵”

B1: unfarnesylated αEpCAM-Fn3 CSANs (αEpCAM-Fn3-DHFR^2-CVIA oligomerized by bisMTX) (designed binder)
chain: MDYKDDDDKASSSDSPRNLEVTNATPNSLTISWDNSNYASYYRITYGETGGNSPSQELTVPGSTYNATISGLKPGQDYIITVYAVTYRDNYSYSNLISINYRSEIDKPSQGSGGSGGGGSGGGGSGGGGSGGGGSGGGGSGGGGSGGGGSGGGGSGGELGGISLIAALAVDRVIGMENAMPWNLPADLAWFKRNTLNKPVIMGRHTWESIGRPLPGRKNIILSSQPGTDDRVTWVKSVDEAIAAAGDVPEIMVIGGGRVYEQFLPKAQKLYLTHIDAEVEGDTHFPDYEPDDWESVFSEFHDADAQNSHSYSFEILERRGGISLIAALAVDRVIGMENAMPWNLPADLAWFKRNTLNKPVIMGRHTWESIGRPLPGRKNIILSSQPGTDDRVTWVKSVDEAIAAAGDVPEIMVIGGGRVYEQFLPKAQKLYLTHIDAEVEGDTHFPDYEPDDWESVFSEFHDADAQNSHSYSFEILERRGGSGGGSGGHHHHHHGGSGGSGGKKKKKKTCVIA
modifications: Non-specific NHS-fluorescein label on amines; monomers joined non-covalently into a predominantly octameric ring by bisMTX; the letters give one monomer.
notes: Fn3-DHFR^2 fusion nanoring formed with bisMTX; 'predominantly octameric'; also called anti-EpCAM-C5-Fn-1DD-CVIA
**Q.** Does B1 bind [1]?
**A.** binds

B2: αCD133-scFv-DHFR^2 CSANs: fluorescein-labeled CSANs from αCD133-scFv-DHFR^2 protein (protein)
chain: MDIVLSQSPAIMSASPGEKVTISCSASSSVSYMYWYQQKPGSSPKPWIYRTSNLASGVPARFSGSGSGTSYSLTISSMEAEDAATYYCQQYHSYPPTFGAGTKLELKSSGGGGSGGGGGGSSRSSLEVKLVESGPELKKPGETVKISCKASGYTFTDYSMHWVNQAPGKGLKWMGWINTETGEPSYADDFKGRFAFSLETSASTAYLQINNLKNEDTATYFCATDYGDYFDYWGQGTTLTVSSELGGSGGGSGGGSGGMISLIAALAVDRVIGMENAMPWNLPADLAWFKRNTLNKPVIMGRHTWESIGRPLPGRKNIILSSQPGTDDRVTWVKSVDEAIAAAGDVPEIMVIGGGRVYEQFLPKAQKLYLTHIDAEVEGDTHFPDYEPDDWESVFSEFHDADAQNSHSYSFEILERRGMISLIAALAVDRVIGMENAMPWNLPADLAWFKRNTLNKPVIMGRHTWESIGRPLPGRKNIILSSQPGTDDRVTWVKSVDEAIAAAGDVPEIMVIGGGRVYEQFLPKAQKLYLTHIDAEVEGDTHFPDYEPDDWESVFSEFHDADAQNSHSYSFEILERRGGSGGGSGGGSGGDYKDDDDK
**Q.** Which “binding to HT29-R cells” value (CD133+ HT29-R cells) does the source give for B2 here?
**A.** specifically bind

B3: non-targeting DHFR^2-CVIA CSANs (other)
chain: GISLIAALAVDRVIGMENAMPWNLPADLAWFKRNTLNKPVIMGRHTWESIGRPLPGRKNIILSSQPGTDDRVTWVKSVDEAIAAAGDVPEIMVIGGGRVYEQFLPKAQKLYLTHIDAEVEGDTHFPDYEPDDWESVFSEFHDADAQNSHSYSFEILERRGGISLIAALAVDRVIGMENAMPWNLPADLAWFKRNTLNKPVIMGRHTWESIGRPLPGRKNIILSSQPGTDDRVTWVKSVDEAIAAAGDVPEIMVIGGGRVYEQFLPKAQKLYLTHIDAEVEGDTHFPDYEPDDWESVFSEFHDADAQNSHSYSFEILERRGGSGGSGGDYKDDDDKGGSGGSGGKKKKKKTCVIA
modifications: Non-specific NHS-fluorescein label on amines; monomers joined non-covalently into a predominantly octameric ring by bisMTX; the letters give one monomer.
notes: Control nanoring without targeting domain, unfarnesylated; 'predominantly octameric'
**Q.** Does B3 bind [2]?
**A.** no binding (tested: 0.5 µM)

**Q.** Does B3 bind [3]?
**A.** no binding (tested: 0.5 µM)

**Q.** Does B3 bind [4]?
**A.** no binding (tested: 0.5 µM)

B4: DHFR^2-CVIA CSANs: non-targeting unfarnesylated control CSANs from DHFR^2-CVIA protein (protein)
chain: GISLIAALAVDRVIGMENAMPWNLPADLAWFKRNTLNKPVIMGRHTWESIGRPLPGRKNIILSSQPGTDDRVTWVKSVDEAIAAAGDVPEIMVIGGGRVYEQFLPKAQKLYLTHIDAEVEGDTHFPDYEPDDWESVFSEFHDADAQNSHSYSFEILERRGGISLIAALAVDRVIGMENAMPWNLPADLAWFKRNTLNKPVIMGRHTWESIGRPLPGRKNIILSSQPGTDDRVTWVKSVDEAIAAAGDVPEIMVIGGGRVYEQFLPKAQKLYLTHIDAEVEGDTHFPDYEPDDWESVFSEFHDADAQNSHSYSFEILERRGGSGGSGGDYKDDDDKGGSGGSGGKKKKKKTCVIA
**Q.** For B4, which “binding to receptor expressing target cells” value [5] is on record?
**A.** no observable binding
